Test results: US20240091318A1, “COMBINATION THERAPY COMPRISING LONG ACTING GLP-1/GLUCAGON AND NPY2 RECEPTOR AGONISTS” (Boehringer Ingelheim International GmbH, priority 2022, published 2024)
One block for each molecule: values may come before it. Numbered stars: 1 amine (or outer) side, 2 acyl side, 3 side chain; on linkers, the order of the positions; unused ones are H or OH. Side chains are listed from the residue outwards. * marks the point of attachment. C18 diacid = O=C(O)CCCCCCCCCCCCCCCCC(=O)*; γGlu = O=C(O)[C@H](CCC(=O)[*:2])N[*:1]; Isovaleryl = CC(C)CC(=O)*; AEEA = NCCOCCOCC(=O)O; Ahx = NCCCCCC(=O)O

Columns and labels:
[1] = Effect on body weight loss and food intake in wildtype Diet Induced Obesity (DIO) mice; assay type: in vivo; details: 30 nmol/kg s.c. once daily, 5 day
From the text: Effect on Body Weight Loss in Wildtype Diet Induced Obesity Mice
Male C57BL6/J pre-fed on 60% high fat diet were obtained from The Jackson Laboratories at >16 weeks of age. Upon arrival of the Diet Induced Obesity (DIO) mice, the mice where single housed to obtain accurate and individual food intake measurements of each animal and assigned an animal number. […] During the entire study animals had ad libitum access to food and water.
Before start of treatment a stratified randomization was performed based on the body weight measured in week −1 prior study start. At study start the age of mice was around 20 weeks. Bodyweight and food intake were measured daily before compound administration. Animals were dosed around one hour before start of the night phase by subcutaneous injection of 30 nmol/kg once daily for 5 till 28 days depending on the experiment. Control animals were dosed by subcutaneous injection daily with vehicle.

[2] = Effect on acute food intake (AFI) in normal NMRI mice; assay type: in vivo; details: male NMRI mice, 10 nmol/kg s.c. once, % vs. vehicle group
Method: Effect on Acute Food Intake in Normal NMRI Mice
Male NMRI mice were obtained from Charles River (Charles River, Research Models & Services Germany GmbH) or from JanVier (JanVier Labs, France) at 5 weeks of age. […] Room temperature was controlled to 21° C.±1° C., with 60%±20% humidity.
Animals were transferred 5-7 days before the start of the study to a real-time food intake monitoring system, HM-2 system (MBRose, Denmark), to allow acclimatization to experimental conditions. As the animals were uniquely identified with microchips, each individual animal was identified by its microchip upon entry and exit from the food channel. Randomization of the mice for each study group (n=7-8) was based on body weight measured the day before the start of the study. A vehicle-treated (50 mM phosphate buffer pH7 with 5% Mannitol) group was included in each experiment. Six hours before the start of the night phase animals were fasted. One hour before the dark phase animals were dosed once subcutaneously (10 nmol/kg) with test peptide. […] The food intake of the treated groups was normalized (in %) to the average food intake of the group receiving vehicle (Table 1). Statistical significance was evaluated using One-way analysis of variance with Turkey's multiple comparison test. P<0.05 was considered statistically significant.

human NPY2 receptor = molecular target: T1, human NPY2 receptor (human, UniProt P49146); test: radioligand binding competition (125I-PYY(1-36)) on human NPY2R membranes, filtration
T1 sequence: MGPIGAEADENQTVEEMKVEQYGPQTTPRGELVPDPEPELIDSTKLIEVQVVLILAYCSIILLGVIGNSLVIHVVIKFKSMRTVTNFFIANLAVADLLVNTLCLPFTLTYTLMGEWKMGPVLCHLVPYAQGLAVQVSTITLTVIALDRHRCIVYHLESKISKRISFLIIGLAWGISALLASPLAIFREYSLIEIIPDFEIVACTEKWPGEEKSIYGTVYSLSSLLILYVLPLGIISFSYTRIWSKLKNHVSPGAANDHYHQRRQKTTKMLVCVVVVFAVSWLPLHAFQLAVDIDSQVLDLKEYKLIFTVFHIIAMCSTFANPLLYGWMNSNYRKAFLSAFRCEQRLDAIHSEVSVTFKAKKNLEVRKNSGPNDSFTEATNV
Method: The filtration RLB assay was carried out in 96-well plates in a final volume of 100 μl per well. Freeze-dried test peptides were dissolved in 100% dimethyl sulfoxide (DMSO) to stock solutions of 1 mM and serial dilutions were performed in assay buffer (50 mM HEPES, 5 mM MgCl₂, 1 mM CaCl₂, pH 7.4) containing 0.2% ovalbumin. […] Subsequently, 10 μl of human ¹²⁵I-PYY(1-36) (Perkin Elmer) in assay buffer containing 0.2% ovalbumin was added to wells to give a final concentration of 0.02 nM. Next, 80 μL membranes (HTS066M, ChemiSCREEN™ Human Neuropeptide Y2 Receptor Membrane Preparation, CHEMICON) were added to each well to give a final protein concentration of 0.5 μg/well. The plates were sealed and incubated at room temperature for 2 hours in a plate shaker set at 400 rpm. The incubation was stopped by vacuum filtration onto 0.5% poly-ethylene amine (PEI) presoaked GF/C filters using a 96-well FilterMate™ harvester (Perkin Elmer) followed by four washes with 300 μl/well ice-cold wash buffer (50 mM HEPES, 500 mM NaCl, pH7.4). Filter plates were then dried for 60 min at room temperature and the bottom of the plates was sealed with backing tape UniFilter-96. Finally, 50 μl/well scintillation counter cocktail (Microscint20, Packard) was added, and the radioactivity was counted in the Packard TopCount NXT scintillation counter. IC₅₀ values (the half maximal inhibitory concentration of the agonist) were calculated by nonlinear regression analysis of sigmoidal dose-response curves.

Molecule: CC(C)CC(=O)N[C@@H](C)C(=O)N1CCC[C@H]1C(=O)N[C@@H](C)C(=O)N[C@@H](CCCCNC(=O)COCCOCCNC(=O)COCCOCCNC(=O)CC[C@H](NC(=O)CCCCCCCCCCCCCCCCC(=O)O)C(=O)O)C(=O)N1CCC[C@H]1C(=O)N[C@@H](CCC(=O)O)C(=O)N[C@@H](CCC(=O)O)C(=O)N[C@@H](CC(=O)O)C(=O)N[C@@H](C)C(=O)N[C@H](C(=O)N1CCC[C@H]1C(=O)N[C@@H](CCC(=O)O)C(=O)N[C@@H](CCC(=O)O)C(=O)N[C@@H](CC(C)C)C(=O)N[C@@H](CCC(N)=O)C(=O)N[C@@H](CCCNC(=N)N)C(=O)N[C@@H](Cc1ccc(O)cc1)C(=O)N[C@@H](Cc1ccc(O)cc1)C(=O)N[C@H](C(=O)N[C@@H](CO)C(=O)N[C@@H](CC(C)C)C(=O)N[C@@H](CCCNC(=N)N)C(=O)N[C@@H](Cc1c[nH]cn1)C(=O)N[C@@H](Cc1ccc(O)cc1)C(=O)N[C@@H](Cc1ccc(O)cc1)C(=O)N[C@@H](CC(N)=O)C(=O)N[C@@H](Cc1c[nH]c2ccccc12)C(=O)N[C@@H](CC(C)C)C(=O)N[C@H](C(=O)N[C@@H](CCCNC(=N)N)C(=O)N[C@@H](CCC(N)=O)C(=O)N[C@@H](CCCNC(=N)N)C(=O)N[C@@H](Cc1ccc(O)cc1)C(N)=O)[C@@H](C)O)C(C)C)[C@@H](C)O [Compound A, N{alpha-4}-(3-methylbutanoyl)-N{epsilon-7}-[2-(2-{2-[2-(2-{2-[(4S)-4-carboxy-4-(17-carboxyheptadecanamido)butanamido]ethoxy}ethoxy)acetamido]ethoxy}ethoxy)acetamido]-[4A,6A,7K,9E,13T,18Q,22V,28Y,30W,31L]hPYY(4-36)]
BW 30 nmol/kg 5 day (body weight loss vs. vehicle group) [1]: 6.7% | AFI 10 nmol/kg 24 h (food intake normalized to vehicle group) [2]: 39%

Molecule: Isovaleryl-APAK([AEEA-AEEA-γGlu-C18 diacid])PEEDASPEEIQRYYVSLRHYYNWLTRQRY-NH2 [Compound E]
Ki (human NPY2 receptor): 550 pM

B2: Compound F (peptide)
peptide: Isovaleryl-APEK([AEEA-AEEA-γGlu-C18 diacid])PEADATPEELQRYYVSLRHYYNWLTRQRY-NH2
SMILES: CC(C)CC(=O)N[C@@H](C)C(=O)N1CCC[C@H]1C(=O)N[C@@H](CCC(=O)O)C(=O)N[C@@H](CCCCNC(=O)COCCOCCNC(=O)COCCOCCNC(=O)CC[C@H](NC(=O)CCCCCCCCCCCCCCCCC(=O)O)C(=O)O)C(=O)N1CCC[C@H]1C(=O)N[C@@H](CCC(=O)O)C(=O)N[C@@H](C)C(=O)N[C@@H](CC(=O)O)C(=O)N[C@@H](C)C(=O)N[C@H](C(=O)N1CCC[C@H]1C(=O)N[C@@H](CCC(=O)O)C(=O)N[C@@H](CCC(=O)O)C(=O)N[C@@H](CC(C)C)C(=O)N[C@@H](CCC(N)=O)C(=O)N[C@@H](CCCNC(=N)N)C(=O)N[C@@H](Cc1ccc(O)cc1)C(=O)N[C@@H](Cc1ccc(O)cc1)C(=O)N[C@H](C(=O)N[C@@H](CO)C(=O)N[C@@H](CC(C)C)C(=O)N[C@@H](CCCNC(=N)N)C(=O)N[C@@H](Cc1c[nH]cn1)C(=O)N[C@@H](Cc1ccc(O)cc1)C(=O)N[C@@H](Cc1ccc(O)cc1)C(=O)N[C@@H](CC(N)=O)C(=O)N[C@@H](Cc1c[nH]c2ccccc12)C(=O)N[C@@H](CC(C)C)C(=O)N[C@H](C(=O)N[C@@H](CCCNC(=N)N)C(=O)N[C@@H](CCC(N)=O)C(=O)N[C@@H](CCCNC(=N)N)C(=O)N[C@@H](Cc1ccc(O)cc1)C(N)=O)[C@@H](C)O)C(C)C)[C@@H](C)O
Ki (human NPY2 receptor): 310 pM

B4: Compound C (peptide)
peptide: Isovaleryl-APAK([AEEA-AEEA-γGlu-C18 diacid])PEEEASPEELQRYYVSLRHYYNWLTRQRY-NH2
SMILES: CC(C)CC(=O)N[C@@H](C)C(=O)N1CCC[C@H]1C(=O)N[C@@H](C)C(=O)N[C@@H](CCCCNC(=O)COCCOCCNC(=O)COCCOCCNC(=O)CC[C@H](NC(=O)CCCCCCCCCCCCCCCCC(=O)O)C(=O)O)C(=O)N1CCC[C@H]1C(=O)N[C@@H](CCC(=O)O)C(=O)N[C@@H](CCC(=O)O)C(=O)N[C@@H](CCC(=O)O)C(=O)N[C@@H](C)C(=O)N[C@@H](CO)C(=O)N1CCC[C@H]1C(=O)N[C@@H](CCC(=O)O)C(=O)N[C@@H](CCC(=O)O)C(=O)N[C@@H](CC(C)C)C(=O)N[C@@H](CCC(N)=O)C(=O)N[C@@H](CCCNC(=N)N)C(=O)N[C@@H](Cc1ccc(O)cc1)C(=O)N[C@@H](Cc1ccc(O)cc1)C(=O)N[C@H](C(=O)N[C@@H](CO)C(=O)N[C@@H](CC(C)C)C(=O)N[C@@H](CCCNC(=N)N)C(=O)N[C@@H](Cc1c[nH]cn1)C(=O)N[C@@H](Cc1ccc(O)cc1)C(=O)N[C@@H](Cc1ccc(O)cc1)C(=O)N[C@@H](CC(N)=O)C(=O)N[C@@H](Cc1c[nH]c2ccccc12)C(=O)N[C@@H](CC(C)C)C(=O)N[C@H](C(=O)N[C@@H](CCCNC(=N)N)C(=O)N[C@@H](CCC(N)=O)C(=O)N[C@@H](CCCNC(=N)N)C(=O)N[C@@H](Cc1ccc(O)cc1)C(N)=O)[C@@H](C)O)C(C)C
Ki (human NPY2 receptor): 1950 pM

Molecule: Isovaleryl-APAK([AEEA-AEEA-γGlu-C18 diacid])PEEDATPEELQRYYVSLRHYYNWLTRQRY-NH2 [Compound A]
Ki (human NPY2 receptor): 660 pM

Next, values leading:

Ki (human NPY2 receptor): 400 pM
B1: Reference 2 (peptide)
peptide: APEKPGEDASPEELQRYYVSLRHYYHWLTRQRY
modifications: not fully specified; N-terminal iVal (3-methylbutanoyl); the Lys (4th residue) carries C18DA-gGlu-OEG-OEG; C-terminal amide (-NH2)

Ki (human NPY2 receptor): 240 pM
Molecule: Isovaleryl-APEK([AEEA-AEEA-γGlu-C18 diacid])PEADASPEEIQRYYVSLRHYYNWLTRQRY-NH2 [Compound J]

Ki (human NPY2 receptor): 1040 pM
Molecule: Isovaleryl-APEK([Ahx-γGlu-C18 diacid])PEADATPEEIQRYYVSLRHYYNWLTRQRY-NH2 [Compound K]

Ki (human NPY2 receptor): 740 pM
B3: Reference 1 (peptide)
peptide: Isovaleryl-APEKPEEDASPEEIQQYYVSLRHYYNWLTRQRY-NH2
modifications: not fully specified (residue 4); printed as iVal-APEK(C18DA-gGlu-OEG-OEG)PEEDASPEEIQQYYVSLRHYYNWLTRQRY-NH2

Ki (human NPY2 receptor): 1960 pM
Molecule: Isovaleryl-APEK([AEEA-AEEA-γGlu-C18 diacid])PEEDATPEELQKYYVSLRHYYNWLTRQRY-NH2 [Compound H]

Ki (human NPY2 receptor): 460 pM
B5: Reference 3 (peptide)
peptide: Isovaleryl-RPEKPEEDASPEELQRYYVSLRHYYNWLTRQRY-NH2
modifications: not fully specified (residue 4); printed as iVal-RPEK(C18DA-gGlu-OEG-OEG)PEEDASPEELQRYYVSLRHYYNWLTRQRY-NH2
